# B1: RL5: polypeptide with laccase activity from bovine rumen metagenome library, amino acid sequence of FIG. 11 (protein)
# chain: MIELEKLDFAKSVEGVEAFSTTRGQVDGRNAYSGVNLCDYVGDDALRVLDARLTLAMQLGVDLDDLVMPRQTHSCRVAVIDERFRALDIDEQEAALEGVDALVTRLQGIVIGVNTADCVPIVLVDSQAGIVAVSHAGWRGTVGRIAKAVVEEMCRQGATVDRIQAAMGPSICQDCFEVGDEVVEAFKKAHFNLNDIVVRNPATGKAHIDLRAANRAVLVAAGVPAANIVESQHCSRCEHTSFFSARRLGINSGRTFTGIYRK
# modifications: Description of sequence Amino acid sequence of RL5 laccase 3217 to 2414 frame 1 - 262 amino acids (see Figure 11)
# Tests used:
# Assay type in all cases: biochemical
# [1] = Laccase activity, 3,4-dimetoxybenzyl alcohol as substrate
# Experimental: (§1) Laccase activity was determined spectrophotometrically in a thermostated spectrophotometer (Perkin-Elmer) at 40° C. in 100 mM sodium citrate buffer, pH 4.5 (1 ml). The standard assay was performed at 530 nm, using SGZ as the oxidation substrate (ε530=64,000 M^−1cm^−1). The reaction was started by adding SGZ, from a stock solution in methanol, to a final concentration of 20 μM. […] Oxidation of phenol red (75 μM) was determined by the decrease in absorbance at 432 nm. The activity:pH and activity:temperature relationships were determined by incubating the enzyme:substrate mixtures at different pH values and constant temperature (40° C.), and at different temperatures (15-80° C.) and constant pH (4.5), respectively. Catalytic constants were derived by fitting the experimental data onto the Michaelis-Menten model. Control measurements without enzyme were carried out to correct for possible chemical oxidation of the substrates.
# [2] = Laccase activity, 1-HBT as substrate
# [3] = Oxidative reactions of various compounds (substrate preference, overall kinetics, pH range); conditions: order of oxidized substrates
# Experimental: as §1
# [4] = pH- and temperature-dependent activity and inactivation profiles
# Experimental: FIG. 2A represents the effect of various pH values on the activity of recombinant purified RL5 laccase. The activity was measured at 40° C. using 1 mM SGZ (syringaldazine) or DMP as substrate. The buffers (100 mM) used were: citrate (pH 3.0-5.5), MES (pH 5.5-7.0), HEPES (pH 7.0-8.0), Tris-HCl (pH 8.0-9.0) and glycine-NaOH (pH 9.0-12). The activity of RL5 for DMP reached an optimum at a broad pH ranging from 3.5-9.0, being optimal at 4.0-5.0; however, it maintained more than 70% activity at pH 3.5 and 9.0 (FIG. 2A).
# FIG. 2B represents the pH inactivation of purified RL5 laccase in sodium citrate pH 4.5 (indicated with “∘”) or glycine-NaOH pH 9.0 (indicated with “[…]”) over a time period of 240 min. 100% activity in the purified protein sample equals 7.2 units/mg (measured at 40° C.).
# FIG. 2C represents the effect of the temperature on the activity of recombinant purified RL5 laccase. The enzyme activity was assayed at each indicated temperature in sodium citrate pH 4.5 in the presence of 1 mM SGZ or DMP. Activity was monitored at 420 nm. Protein activity increased as the temperature was raised to a maximum at ˜60° C. Therefore, RL5 is stable at high temperatures.
# FIG. 2D represents the thermal inactivation of purified RL5 laccase. Purified enzyme was incubated in vials at 60° C. ([…]) or 65° C. (∘). At the indicated times, samples were withdrawn and tested for laccase activity at 40° C. by using SGZ or DMP as a substrate. 100% activity in the purified protein sample equals 17.2 units/mg.
# Corresponding experiments were performed with BT4389 and YfiH under conditions as described above for FIGS. 2A to 2D (data not shown). The activity of these enzymes reached an optimum at a temperature of 52° C. (for BT4389) and 44° C. (for YfiH) and the thermal activity maintained for more than 80% at 55° C. (for BT4389) and at 50° C. (for YfiH). The activity of both enzymes reached an optimum at a pH range from 4.5 to 6.0 (for BT4389) and from 5.5 to 8.4 (for YfiH), although 80% activity maintained at pH 4.0 to 7.5 (for BT4389) and 5.0 to 9.0 (for YfiH).
# as §1
# [5] = Oxidation of anthracene (HPLC, GC-MS/MS); conditions: 50 μM anthracene, HOBt, pH 4.5, overnight, room temperature
# Experimental: (§2) Procedures for cloning, expression and purification of laccase are described in the reference: Beloqui, A., et al. (2006), which is made part of the disclosure of the present application.
# HPLC conditions: the HPLC (Varian 9012) was provided with an automatic injector (Autosampler L2200, VWR Hitachi). 10 μL of sample reaction were injected to a C18 Nucleosil 3 μm, 80×4 mm, column (AV-2486, Analisis Vinicos S. A.). The mobile phase consisted of acetonitrile:water 70:30 (v/v) and the flow rate was controlled at 1 mL/min. A PhotoDiode Array Detector (Prostar 335, Varian) with the UV lamp fixed to 251 nm was used to detect the eluted compounds.
# [6] = Oxidation of benzo[a]pyrene (HPLC); conditions: 50 μM benzo[a]pyrene, HOBt, pH 4.5, overnight, room temperature
# Source text: as §2
# Benzo[a]pyrene was oxidized, however the oxidation products haven't been identified yet.
molecule,measurement,setting,value
B1,substrate of the laccase,[1],not substrates
same,substrate of the laccase,[2],not substrates
same,substrate preference,[3],SGZ>DMP>veratryl alcohol>guaiacol>tetramethylbenzidine>4-metoxybenzyl alcohol>2ABTS>phenol red
same,pH optimum of activity,"[4]; 40° C., 1 mM substrate, 100 mM buffers",4.0-5.0 pH
same,activity maintained at pH 3.5 and 9.0,"[4]; DMP, 40° C.",more than 70%
same,broad pH range of activity,"[4]; DMP, 40° C.",3.5-9.0 pH
same,thermal stability,[4]; incubated at 60° C. or 65° C.,"highly stable at this temperatures over a long time period, for at least four hours"
same,100% activity in the purified protein sample,"[4]; pH inactivation experiment, measured at 40° C.",7.2 units/mg
same,temperature optimum of activity,"[4]; sodium citrate pH 4.5, 1 mM SGZ or DMP",~60 °C
same,pH stability,"[4]; sodium citrate pH 4.5 or glycine-NaOH pH 9.0, 240 min",highly stable over a long time period at these pHs
same,100% activity in the purified protein sample,"[4]; thermal inactivation experiment, tested at 40° C., SGZ or DMP",17.2 units/mg
same,oxidation of anthracene,[5],"efficiently oxidize anthracene to 9,10-antraquinone"
same,oxidation of benzo[a]pyrene,[6],oxidized
